Assay results published in paper PMC12313985 (2025).
Square brackets hold non-standard residues; d marks the D form. Ends that are not written are not given here. pS = N[C@@H](COP(=O)(O)O)C(=O)O

Biological target: T1, 14-3-3 protein zeta (14-3-3ζ) (UniProt P63104 1-245)
T1 chain: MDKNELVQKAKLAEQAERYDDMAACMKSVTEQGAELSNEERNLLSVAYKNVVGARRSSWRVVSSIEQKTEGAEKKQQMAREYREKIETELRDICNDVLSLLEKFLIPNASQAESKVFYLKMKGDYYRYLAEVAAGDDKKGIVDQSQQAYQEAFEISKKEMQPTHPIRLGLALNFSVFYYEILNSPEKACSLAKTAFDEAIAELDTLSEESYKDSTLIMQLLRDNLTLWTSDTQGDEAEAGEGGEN
Assay: FP

| Binder | Kd |
| --- | --- |
| SRTP[pS]LPTPPTREGGGSGGGSGGGVTSKCG[pS]LGNIHHK (also: fluorescein (FITC) label, position not given here) [Fluorescein (FITC)-labelled bi-phospho Tau peptide pS2 (Tau^210–222-GGGSGGGSGGG-Tau^318–331)] | 0.945 µM |
| SRTP[pS]LPTPPTRE (also: fluorescein (FITC) label, position not given here) [Fluorescein-labelled mono-phospho-Tau pS214 peptide] | > 100 µM |
| VTSKCG[pS]LGNIHHK (also: fluorescein (FITC) label, position not given here) [Fluorescein-labelled mono-phospho-Tau pS324 peptide] | > 100 µM |
